Reference: ChEMBL document CHEMBL1151784, “Antibiotic evaluation and in vivo analysis of alkynyl Coenzyme A antimetabolites in Escherichia coli” (2008)

Tests used:
[1] = substrate: CCOC(=O)NCCNC(=O)CCNC(=O)[C@H](O)C(C)(C)CO; test: (§1) Activity of Escherichia coli K12 CoaA
[2] = substrate: CCCNC(=O)CCNC(=O)[C@H](O)C(C)(C)CO; test: as §1
[3] = substrate: C#CCNC(=O)CCNC(=O)[C@H](O)C(C)(C)CO; test: as §1
[4] = substrate: C#CCCCNC(=O)CCNC(=O)[C@H](O)C(C)(C)CO; test: as §1
[5] = substrate: CC(C)(CO)[C@@H](O)C(=O)NCCC(=O)NCCN=[N+]=[N-]; test: as §1
[6] = substrate: C#CCCNC(=O)CCNC(=O)[C@H](O)C(C)(C)CO; test: as §1
[7] = substrate: CC(C)(CO)[C@@H](O)C(=O)NCCC(=O)O; test: as §1
[8] = substrate: C=CCNC(=O)CCNC(=O)[C@H](O)C(C)(C)CO; test: as §1
[9] = substrate: C#CCCC(=O)NCCNC(=O)CCNC(=O)[C@H](O)C(C)(C)CO; test: as §1
[10] = substrate: CCCCCNC(=O)CCNC(=O)[C@H](O)C(C)(C)CO; test: as §1
[11] = substrate: C#CC(=O)NCCNC(=O)CCNC(=O)[C@H](O)C(C)(C)CO; test: as §1
[12] = substrate: C=CC(=O)NCCNC(=O)CCNC(=O)[C@H](O)C(C)(C)CO; test: as §1
[13] = substrate: CCC(=O)OCCNC(=O)CCNC(=O)[C@H](O)C(C)(C)CO; test: as §1
[14] = substrate: C#CCCCCNC(=O)CCNC(=O)[C@H](O)C(C)(C)CO; test: as §1
[15] = substrate: CCC(=O)NCCNC(=O)CCNC(=O)[C@H](O)C(C)(C)CO; test: as §1
[16] = substrate: C#CCNC(=O)[C@H](O)C(C)(C)CO; test: as §1
[17] = substrate: CCOC(=O)NCCNC(=O)CCNC(=O)[C@H](O)C(C)(C)CO; test: (§2) Ratio of kcat to Km for Escherichia coli K12 CoaA
[18] = substrate: CCCNC(=O)CCNC(=O)[C@H](O)C(C)(C)CO; test: as §2
[19] = substrate: C#CCNC(=O)CCNC(=O)[C@H](O)C(C)(C)CO; test: as §2
[20] = substrate: C#CCCCNC(=O)CCNC(=O)[C@H](O)C(C)(C)CO; test: as §2
[21] = substrate: CC(C)(CO)[C@@H](O)C(=O)NCCC(=O)NCCN=[N+]=[N-]; test: as §2
[22] = substrate: C#CCCNC(=O)CCNC(=O)[C@H](O)C(C)(C)CO; test: as §2
[23] = substrate: CC(C)(CO)[C@@H](O)C(=O)NCCC(=O)O; test: as §2
[24] = substrate: C=CCNC(=O)CCNC(=O)[C@H](O)C(C)(C)CO; test: as §2
[25] = substrate: C#CCCC(=O)NCCNC(=O)CCNC(=O)[C@H](O)C(C)(C)CO; test: as §2
[26] = substrate: CCCCCNC(=O)CCNC(=O)[C@H](O)C(C)(C)CO; test: as §2
[27] = substrate: C#CC(=O)NCCNC(=O)CCNC(=O)[C@H](O)C(C)(C)CO; test: as §2
[28] = substrate: C=CC(=O)NCCNC(=O)CCNC(=O)[C@H](O)C(C)(C)CO; test: as §2
[29] = substrate: CCC(=O)OCCNC(=O)CCNC(=O)[C@H](O)C(C)(C)CO; test: as §2
[30] = substrate: C#CCCCCNC(=O)CCNC(=O)[C@H](O)C(C)(C)CO; test: as §2
[31] = substrate: CCC(=O)NCCNC(=O)CCNC(=O)[C@H](O)C(C)(C)CO; test: as §2
[32] = substrate: C#CCNC(=O)[C@H](O)C(C)(C)CO; test: as §2

B1: Pantothenate kinase (Escherichia coli K-12), P0A6I3 (protein)
chain: MSIKEQTLMTPYLQFDRNQWAALRDSVPMTLSEDEIARLKGINEDLSLEEVAEIYLPLSRLLNFYISSNLRRQAVLEQFLGTNGQRIPYIISIAGSVAVGKSTTARVLQALLSRWPEHRRVELITTDGFLHPNQVLKERGLMKKKGFPESYDMHRLVKFVSDLKSGVPNVTAPVYSHLIYDVIPDGDKTVVQPDILILEGLNVLQSGMDYPHDPHHVFVSDFVDFSIYVDAPEDLLQTWYINRFLKFREGAFTDPDSYFHNYAKLTKEEAIKTAMTLWKEINWLNLKQNILPTRERASLILTKSANHAVEEVRLRK
[1]
  Km: 33.7 µM
  Vmax: 0.25 µM/s
  kcat: 0.0103 s⁻¹
[2]
  Km: 36.9 µM
  Vmax: 0.37 µM/s
  kcat: 0.0152 s⁻¹
[3]
  Km: 36 µM
  Vmax: 0.31 µM/s
  kcat: 0.0128 s⁻¹
[4]
  Km: 40.3 µM
  Vmax: 0.29 µM/s
  kcat: 0.012 s⁻¹
[5]
  Km: 43.5 µM
  Vmax: 0.28 µM/s
  kcat: 0.0115 s⁻¹
[6]
  Km: 34 µM
  Vmax: 0.33 µM/s
  kcat: 0.0135 s⁻¹
[7]
  Km: 35.8 µM
  Vmax: 0.31 µM/s
  kcat: 0.0127 s⁻¹
[8]
  Km: 41.2 µM
  Vmax: 0.38 µM/s
  kcat: 0.0157 s⁻¹
[9]
  Km: 47.8 µM
  Vmax: 0.23 µM/s
  kcat: 0.00933 s⁻¹
[10]
  Km: 34 µM
  Vmax: 0.34 µM/s
  kcat: 0.014 s⁻¹
[11]
  Km: 48.5 µM
  Vmax: 0.22 µM/s
  kcat: 0.009 s⁻¹
[12]
  Km: 58 µM
  Vmax: 0.26 µM/s
  kcat: 0.0107 s⁻¹
[13]
  Km: 27.8 µM
  Vmax: 0.26 µM/s
  kcat: 0.0108 s⁻¹
[14]
  Km: 40 µM
  Vmax: 0.29 µM/s
  kcat: 0.012 s⁻¹
[15]
  Km: 34.6 µM
  Vmax: 0.22 µM/s
  kcat: 0.00883 s⁻¹
[16]
  Km: 396 µM
  Vmax: 0.26 µM/s
  kcat: 0.0107 s⁻¹
[17]
  kcat/Km: 305 M⁻¹ s⁻¹
[18]
  kcat/Km: 411 M⁻¹ s⁻¹
[19]
  kcat/Km: 356 M⁻¹ s⁻¹
[20]
  kcat/Km: 299 M⁻¹ s⁻¹
[21]
  kcat/Km: 268 M⁻¹ s⁻¹
[22]
  kcat/Km: 396 M⁻¹ s⁻¹
[23]
  kcat/Km: 352 M⁻¹ s⁻¹
[24]
  kcat/Km: 381 M⁻¹ s⁻¹
[25]
  kcat/Km: 195 M⁻¹ s⁻¹
[26]
  kcat/Km: 410 M⁻¹ s⁻¹
[27]
  kcat/Km: 185 M⁻¹ s⁻¹
[28]
  kcat/Km: 183 M⁻¹ s⁻¹
[29]
  kcat/Km: 392 M⁻¹ s⁻¹
[30]
  kcat/Km: 300 M⁻¹ s⁻¹
[31]
  kcat/Km: 257 M⁻¹ s⁻¹
[32]
  kcat/Km: 27 M⁻¹ s⁻¹
